From US20090143724A1, “Microprojection Array Immunization Patch and Method” (Alza Corporation, priority 2001, published 2009)

Key:
[1] = OVA delivery into hairless guinea pig skin from dry-coated microprojection arrays (skin biopsy fluorometry); type: in vivo; settings: for Amount of ovalbumin delivered: 2 cm^2 array applied 5 seconds on HGP skin, n=3, mean ± SEM; for OVA delivered into the skin: 2 cm^2 device coated with 20% OVA solution
From the text: The treatment sites (lateral area of the thorax) of anesthetized HGPs were cleaned with isopropyl alcohol wipes (70%) and allowed to dry. The skin site was lightly stretched manually when the system was applied using an impact applicator. Following application, the stretching tension was released and the system was left on the skin for the specified period of time. For devices left on skin for more than 5 seconds, the HGPs were wrapped with Vetwrap® (3M, St Paul, Minn.) and individually housed.
Each HGP received a dry-coated FITC-OVA microprojection array, which was applied as described above. Following system removal, the treated skin sites were thoroughly washed with 70% isopropyl alcohol to remove any residual OVA on the skin surface. The HGPs were euthanized and 8-mm skin biopsies were taken. Each tissue sample was placed in a scintillation vial with 0.1 mL deionized water. Hyamine hydroxide (0.9 mL, 1 M in methanol, JT Baker, Phillipsburg, N.J.) was then added, and the samples were incubated overnight at 60° C. Thereafter, the dissolved material was further diluted with 2 mL hyamine hydroxide/water (9:1), and fluorescence was quantitated by fluorometry and compared to known standards. Background control samples included untreated skin. A minimum replicate of three was used for each experimental condition.

[2] = tested on: hairless guinea pigs (HGPs); assay: Immunization of hairless guinea pigs with OVA; anti-OVA IgG titers by ELISA; type: in vivo, hairless guinea pig; settings: for Increase in antibody titer over non-adjuvant controls: about 1 μg OVA with 15 μg GMDP, one week after booster
Procedure: Baseline blood samples were obtained from all animals before the day of immunization. On the day of immunization, the HGPs were anesthetized and the treatment sites were cleaned with 70% isopropyl alcohol and allowed to dry. For immunizations performed by needle injection, OVA was dissolved in sterile water. Sterile 1-mL syringes with 25-gauge needles (Becton Dickinson, Franklin Lakes, N.J.) were used. ID and SC injections were performed on the dorsal-lateral area of HGPs. The quadriceps muscle of the hind leg was used for IM injection. Microprojection arrays containing dry-coated OVA were applied as described above.
Each HGP received a primary immunization (Day 0) followed by a secondary (i.e., booster) immunization 4 weeks later with an identical article. After primary immunization, HGPs were anesthetized and blood was collected from the anterior vena cava. The serum samples were evaluated by immunoassay for the presence of anti-OVA antibodies.
Sera from nonimmunized and immunized HGPs were tested for the presence of antibodies to OVA by enzyme-linked immunosorbent assay (ELISA). Briefly, 96-well polystyrene plates (Maxisorp, NUNC, Rochester, N.Y.) were coated with 0.1 muwell of OVA (10 μg/mL in 0.2 M Na bicarbonate/carbonate buffer, pH 9.6) and incubated overnight at 4° C. The plates were washed with PBS-Tween buffer then blocked with 200 μL of PBS/casein (0.5%)/Tween-20 (0.05%) buffer for 1 hour at room temperature. Then the plates were again washed and the test sera were added (100 μL/well at 2- to 5-fold serial dilutions, three replicates, 1 hour at room temperature). After washing, 100 μL peroxidase conjugated goat anti-guinea pig IgG antibody (Jackson ImmunoResearch Laboratories, West Grove, Pa.) was added and incubated for 1 hour at room temperature. After incubation, the plates were washed, 100 μL of substrate (ABTS, Becton Dickinson, Franklin Lakes, N.J.) was added, and they were incubated for 35 minutes at room temperature. Absorbance ([…]) was measured using a SpectraMAX 250 (Molecular Devices Corporation, Sunnyvale, Calif.). The results are expressed as endpoint antibody titers relative to nonimmunized control sera samples.
Results are presented as the mean with its associated standard error of the mean. Comparison between groups was performed by analysis of variance (ANOVA).

hairless guinea pigs = assay: Example 2: immunization with tip-coated arrays; anti-ovalbumin IgG titer by ELISA; type: in vivo, hairless guinea pig; settings: tip-coated array patch, 5 seconds wearing; two and three weeks after primary immunization; six animals
Procedure: Identical microprojection arrays were coated with untagged ovalbumin using a similar methodology. The amount of protein coated on the arrays was evaluated by total protein assay. The target dose of 5 μg of ovalbumin (OVA) was coated with acceptable reproducibility (4.6±0.5 μg) using a 20 wt % OVA coating solution. Immunization studies were conducted with these arrays in one group of six hairless guinea pigs. Systems and system application in animals was the same as described above except that the wearing time in all guinea pigs was 5 seconds. Three additional groups of animals received intradermal injections of 0.1, 1.0, and 10 μg ovalbumin. Blood samples were taken at various time intervals and evaluated for antibody (IgG) titer against ovalbumin by ELISA.

[3] = Example 2: ovalbumin delivery into hairless guinea pig skin from tip-coated arrays; type: in vivo; settings: for Delivery efficiency: tip-coated arrays
From the text: Some of these microprojection arrays were applied to hairless guinea pigs (three animals per group) for evaluation of ovalbumin delivery into the skin. The skin of the animal flank was stretched manually bilaterally ( ? and ? ) at the time of application of the system. […] The system applied comprised an ovalbumin coated microprojection array, adhered to the center of a low density polyethylene film backing with an acrylate adhesive (7 cm^2 disc). Following application, the stretching tension was released and the system was removed after 5 seconds or 1 hour contact with the skin. Following removal of the system, residual drug was thoroughly washed from the skin and an 8 mm skin biopsy was taken at the location of the application. The total amount of ovalbumin delivered in the skin was determined by dissolving the skin biopsy in hyamine hydroxide (1M in methanol). Quantitation was performed by fluorimetry. […] Delivery efficiency was also found to be relatively independent of the thickness of the coating.

[4] = 1 μg OVA, 1 week after booster immunization

Molecule: CC(=O)NC1C(OC2C(CO)OC(O)C(NC(C)=O)C2OC(C)C(=O)N[C@@H](C)C(=O)N[C@H](CCC(N)=O)C(=O)O)OC(CO)C(O)C1O (stereo partly drawn) [GMDP, N-acetylglucosamine-(β1-4)-N-acetylmuramyl-L-alanyl-D-glutamine, reference compound]
- Effect of the adjuvant on the amount of OVA delivered ([1]; OVA and GMDP dry-coated arrays, data not shown): did not significantly affect the amount of OVA delivered
- Antibody titers with arrays delivering GMDP and OVA versus OVA alone (dose-sparing) ([2]; 1 μg OVA with about 15 μg GMDP by microprojection array): approached the titer levels achieved with OVA doses of 20 μg or greater in the absence of GMDP
- Increase in antibody titer over non-adjuvant controls ([2]; ID administration): 250%
- Increase in antibody titer over non-adjuvant controls ([2]; microprojection array administration): 1300%

Molecule: ovalbumin [model protein antigen (Grade V, SIGMA); FITC-labeled form used for coating and delivery quantitation]
- Antibody level, microprojection array relative to IM injection [2, 4]: 50 fold
- Antibody level, microprojection array relative to SC injection [2, 4]: 10 fold
- Antibody titer, microprojection array relative to IM needle administration ([2]; 5 μg OVA, 1 week after booster immunization): 24 fold
- Antibody response, microprojection array relative to subcutaneous or intramuscular administration ([2]; 1 and 5 μg doses of OVA): up to 50 fold
- Antibody response, microprojection array versus intradermal administration ([2]; 1 and 5 μg doses of OVA): equivalent
- Antibody titers, microprojection array versus conventional ID, SC or IM injection ([2]; 20 or 80 μg OVA, 1 week after booster immunization): comparable
- Development of anti-ovalbumin IgG antibodies (hairless guinea pigs): all animals dosed with the microprojection array patch had developed anti-ovalbumin IgG antibodies

B1: ovalbumin (protein, UniProt P01012 2-386, looked up)
Ovalbumin: GSIGAASMEFCFDVFKELKVHHANENIFYCPIAIMSALAMVYLGAKDSTRTQINKVVRFDKLPGFGDSIEAQCGTSVNVHSSLRDILNQITKPNDVYSFSLASRLYAEERYPILPEYLQCVKELYRGGLEPINFQTAADQARELINSWVESQTNGIIRNVLQPSSVDSQTAMVLVNAIVFKGLWEKAFKDEDTQAMPFRVTEQESKPVQMMYQIGLFRVASMASEKMKILELPFASGTMSMLVLLPDEVSGLEQLESIINFEKLTEWTSSNVMEERKIKVYLPRMKMEEKYNLTSVLMAMGITDVFSSSANLSGISSAESLKISQAVHAAHAEINEAGREVVGSAEAGVDAASVSEEFRADHPFLFCIKHIATNAVLFFGRCVSP
modifications: FITC label (in one form)
notes: model protein antigen (Grade V, SIGMA); FITC-labeled form used for coating and delivery quantitation
- Amount of ovalbumin delivered ([1]; 1% coating concentration): about 1 μg/cm^2
- Amount of ovalbumin delivered ([1]; 1% coating concentration, listed as Ovalbumin): 0.9 ± 0.1 μg/cm^2
- OVA delivered into the skin ([1]; 30 minute application): 50 µg
- OVA delivered into the skin ([1]; 1 hour application): approximately 80 μg
- Amount of ovalbumin delivered ([1]; 5% coating concentration): ~6 μg/cm^2
- Amount of ovalbumin delivered ([1]; 5% coating concentration, listed as Ovalbumin): 5.8 ± 1.4 μg/cm^2
- Amount of ovalbumin delivered ([1]; 20% coating concentration): ~10 μg/cm^2
- Amount of ovalbumin delivered ([1]; 20% coating concentration, listed as Ovalbumin): 9.9 ± 0.6 μg/cm^2
- Approximate dose delivered ([1]; Delivery condition I: 1% coating, wearing time 5 seconds, surface area 1 cm^2): ~1 µg
- Approximate dose delivered ([1]; Delivery condition II: 5% coating, wearing time 5 seconds, surface area 1 cm^2): ~5 µg
- Approximate dose delivered ([1]; Delivery condition III: 20% coating, wearing time 5 seconds, surface area 2 cm^2): ~20 µg
- Approximate dose delivered ([1]; Delivery condition IV: 20% coating, wearing time 3600 seconds, surface area 2 cm^2): ~80 µg
- OVA delivered from arrays dry-coated with OVA and GMDP ([1]; array coated from OVA (1%) and GMDP (10%)): approximately 1 μg
- OVA delivered into hairless guinea pig skin ([3]; tip-coated 2 cm^2 arrays, 5 second or 1 hour wearing): up to 4.5 μg
- Delivery efficiency ([3]; 5 second wearing time): higher than 55%
- Delivery efficiency ([3]; 1 hour wearing time): > 85%
- Seroconversion after primary immunization ([2]; 20 or 80 μg OVA by microprojection array, 2 weeks after primary immunization): seroconverted by 2 weeks after the primary immunization
- Seroconversion after booster immunization ([2]; OVA by microprojection array, all doses tested (1, 5, 20, 80 μg)): All animals had seroconverted
